{
  "source": "patent US20080113421A1",
  "about": "“Stabilizing proteins against denaturation and inactivation by charged detergents using chemical modifications, including modifications that increase net charge” (President and Fellows of Harvard College, priority 2006, published 2008)",
  "test": "Screening of additives in denaturation/renaturation with SDS",
  "format": "physicochemical",
  "protocol": "Additives in de-/renaturation included the following. The effects of the following additives on denaturation and renaturation of BCA and BCA-Ac18 were screened: poly(ethelyneglycol) (PEG, MW=2000), 0.1 mM, 1 mM; poly(vinylpyrrolidone), MW=10 000, 1%, 10% w/v; 3-(3-cholamidopropyl)dimethylammoniopropane sulfonate (CHAPS), 1 mM; octanol, 1 mM; tetrabutylammonium thiocyanate, 100 mM; sodium thiocyanate, 100 mM, 1 M; sodium sulfate, 10 mM; betaine, 1 M; dimethyl sulfoxide (DMSO), 1%, 10% v/v; N-methylpyrrolidone, 1%, 10% v/v. The screening was performed in a 96-well plate format, using a SpectraMax Gemini XS spectrometer (Molecular Devices), with a protein concentration of 100 nM, a DNSA concentration of 10 micromolar (present in the denaturation/renaturation buffers), and variable concentrations of SDS.\nIn some experiments, various additives were used to prevent aggregation of BCA and BCA-Ac18. These additives were commonly used to prevent aggregation of carbonic anhydrases and other proteins. The additives included polymers (PEG), other surfactants (CHAPS), “salting-in” Hofmeister salts (tetrabutylammonium thiocyanate and sodium thiocyanate), osmolytes (betaine), and organic solvents (dimethyl sulfoxide and N-methylpyrrolidone). […] For example, in 10% DMSO, it was observed that refolding of BCA up to 1.2 mM SDS (vs. 0.7 mM SDS without a cosolvent), but unfolding up to 2.5 mM SDS was not observed.",
  "data": [
    {"substance": "bovine carbonic anhydrase II [BCA]", "values": [
      {"measurement": "highest SDS concentration at which refolding was observed", "setting": "1 mM CHAPS", "result": "up to 1.8 mM"},
      {"measurement": "SDS concentration needed for unfolding", "setting": "1 mM CHAPS, unfolding did not occur below this concentration", "result": "≥ 2.5", "unit": "mM"},
      {"measurement": "highest SDS concentration at which refolding was observed", "setting": "10% DMSO", "result": "up to 1.2 mM"},
      {"measurement": "SDS concentration needed for unfolding", "setting": "10% DMSO, unfolding up to this concentration not observed", "result": "> 2.5", "unit": "mM"},
      {"measurement": "highest SDS concentration at which refolding was observed", "setting": "without a cosolvent", "result": "≤ 0.7", "unit": "mM"}
    ]}
  ]
}
